According to patent publication US11311625B2, “Peptide-based multiple-drug delivery vehicle” (priority 2015, dated 2022):
Like-named read-outs stand apart in the source and are kept apart here.

Columns and labels:
[1] = Bio-stability of 9a in murine liver homogenate (LH); format: in vitro ADME, mouse
Method: Preparation of the LH and assay: Mice were sacrificed by CO2 inhalation euthanasia. The livers were removed, minced, washed three times in cold PBS buffer and homogenized in Tris-HCl, pH 7.4 buffer (wt/3 vol.) by dozen strokes in a Potter-Elvehjem glass tissue grinder. The tissue homogenate was centrifuged at 4° C., 14000 rpm, 20 min. The supernatant was carefully collected (LH) and used immediately or else stored in liquid nitrogen. The concentration of protein was measured using the BCA protein assay with bovine serum albumin as a standard.
Assay incubation procedure: Incubations were conducted in an incubator oven set at 37° C. Each incubation tube contained 2 mL homogenate samples (equivalent to 6 mg total protein of mouse LH). The samples were prepared by adding 50 μL of stock solution to the LH at the beginning of the incubation period. Aliquots (100 μL) of the LH mixture were removed after 10, 30, 60, 90, 120, and 180 min. immediately quenched with 2.5 volumes of ethanol, and centrifuged at 14000 rpm for 15 min. The supernatants were collected, filtered and analyzed by LC-MS.
In order to get a biologically relevant picture of the release sequence of the different drugs, the bio-stability of 9a in murine liver homogenate (LH) was studied. Examination of the degradation rate of 9a, accompanied by cleavage of free drugs, was carried out following the LC-MS trace at different time intervals using premade authentic samples as reference signals.

[2] = Chemo-stability and drug release of 9a and CLB in buffers at pH 2, 5 and 7.4 (LC-MS); format: physicochemical; settings: for half-life at 0.04 mg/mL: buffer, read-out: degradation t1/2 (converted)
Method: Stock solutions chemo-stability studies were prepared by dissolving 5 mg of the tested compound in 5000 μl of DMSO.
Incubation procedure: Aqueous stability was determined at pH 2, 5 and 7.4. Aliquots (100 μl) of stock solution were diluted to a total of 2.5 mL with the desired buffer and then incubated at 37° C. During the incubation period (up to 160 h) 250 μL portions were drawn at different time intervals, filtered and analyzed by LC-MS.
Peptidyl delivery systems loaded with anticancer drugs are expected to reach their site of action with minimal degradation. The PDS should be stable enough to be absorbed by cancer cells and only then deliver its toxic cargo. Chemo-stability and bio-stability studies may give us a background check for the endurance of our compact peptidyl DDS under the different conditions it is expected to encounter in a potential animal test. To that end, samples of 9a were incubated at pH 2, mimicking stomach conditions, at pH 5 mimicking the microenvironment in tumors, and at physiological pH 7.4, all at 37° C. Aliquots from the stock solutions were extracted at different time intervals and analyzed by LC-MS following the decrease in concentration of 9a (i.e., chemical degradation) and the formation of the dihydroxy derivative 11. In addition, the direct release of the different drugs was also followed based on the increase in the concentration of CLB, AZA and CAMP over time. In this analysis samples of 9a, 11, CLB, AZA and CAMP were used as references. Overall, the HPLC trace presents a very complex mixture of metabolites which could not be exhaustively characterized. Scheme 9 below presented the molecular structure 11.

[3] = test system: HEK293 and TRAMP C2 cell lines; format: cell-based, human; settings: 0.1-10 μM, both cell lines
Method: The cytotoxicity of the conjugates was determined by measuring the mitochondrial enzyme activity, using a commercial XTT assay kit. All samples contained DMSO at a final concentration <0.05%. Cells were cultured in micro wells at 2-4×10^4 cells/mL and incubated for 24 h or 72 h at 37° C. After the first incubation period of 24 h the cultures were washed and then given a fresh medium containing different concentrations of the tested substances. At the end of the second incubation, XTT reagent was added and the cells were re-incubated for additional 2-4 h. During that time the absorbencies in the wells were measured with a TECAN Infinite M200 ELISA reader at both 480 and 680 nm. […]
The in vitro activity of 9a was determined on human embryonic kidney 293 (HEK293) cells and human prostate cancer TRAMP C2 cell lines in order to compare the cytotoxicity of 9a relative to the three selected free drugs. […] The cytotoxicity of 9a was determined by measuring the mitochondrial enzyme activity of the different cell lines after incubation with the different substances for 24 h and 72 h. The viability factor (% of surviving cells) of the cell cultures was calculated relative to a control sample incubated with the vehicle only, considered as 100% viability. […]
FIGS. 19A-19D present the results of the viability assay (% surviving cells) of the cell cultures calculated relative to the control, 100% viability. […]

[4] = test system: H1299 human non-small cell lung carcinoma cells; test: XTT growth inhibition assay, H1299; format: cell-based; settings: 10 μM, incubation of 72 h
Method: (§1) The cytotoxicity of the peptide-drug conjugates was determined by measuring the mitochondrial enzyme activity, using a commercial XTT assay kit. All samples contained DMSO at final concentration <0.05%. Cells were cultured in micro wells at 2-4×10^4 cells/ml and incubated for 24 h or 72 h. After the first incubation period the cultures were washed and then given fresh medium containing different concentrations of the tested substances. At the end of the second incubation, XTT reagent was added and the cells were re-incubated for additional 2-4 h. During that time the absorbencies in the wells were measured with a TECAN Infinite M200 plate reader at both 480 and 680 nm. The difference between these measurements was used for calculating the % Growth Inhibition (GI) in test wells compared to two controls: cells that were exposed to the medium and solvent, and those that were exposed to a solvent-free medium. All the tests were done in quadruplicates. Each experiment was conducted twice.
(§2) In order to compare the cytotoxic effects of the conjugates relative to the free drugs, the in vitro cytotoxic effect of the drug bioconjugates 1a-e was determined on SSTR2 overexpressed HCT 116 human colorectal carcinoma, H1299 human non-small cell lung carcinoma and TRAMP C2 human prostate cancer cell lines. The SSTR2 low-expressed HEK-293 (Human Embryonic Kidney 293) cell line was used as a negative control. The study was elaborated over a concentration range of 1-10 μM.
FIGS. 13A-13D present the results of the XTT growth inhibition assay conducted for conjugates 1a-e. […] After the treatment, growth inhibition was measured using the XTT assay: The culture medium was replaced by a new one, and then the XTT reagent was added. The wells were incubated for 2-4 hrs. after which the optical density (OD) was measured at 480 and 680 nm. Percentage of growth inhibition for each compound was calculated by comparison of the treated culture versus a control culture (free of any compound). The result shown for each concentration point represents the mean±standard error calculated from two different experiments. […]

[5] = Bio-stability and drug release of conjugates 1a-e in murine liver homogenate (LH); format: in vitro ADME, mouse; settings: 37° C.
Method: Preparation of liver homogenate: Mice were sacrificed by CO2 inhalation euthanasia. The livers were removed, minced, washed three times in cold PBS buffer and homogenized in Tris-HCl buffer, pH 7.4 (wt/3 vol.) by dozen strokes in a Potter-Elvehjem glass tissue grinder. The tissue homogenate was centrifuged at 4° C., 14000 rpm, 20 min. The supernatant was carefully collected (liver homogenate) and used immediately or else stored in liquid nitrogen.
Incubation procedure: Incubations were conducted in a 37° C. incubator with 2 ml homogenate (equivalent to 6 mg total protein of mouse liver homogenate) per incubation tube. The samples were prepared by adding 50 μl of stock solution to the homogenate (homogenate mixture) at the beginning of the incubation period. Aliquots of the homogenate mixture were removed after 10, 30, 60, 90, 120 and 180 min and then immediately quenched with 2.5 volumes of ethanol. The samples were centrifuged at 14000 rpm for 15 min. Supernatants were collected, filtered and analyzed by LC-MS.
FIGS. 12A-12E present the results of the bio-stability and drug release profiles assays conducted for conjugates 1a-e in LH. […] Stock solutions were prepared by dissolving 5 mg of the measured conjugate in 0.5 ml DMSO. 50 μl of the stock solution were diluted with 2 ml of fresh mouse liver homogenate and then the mixture was incubated at 37° C. Aliquots were collected at 10, 30, 60, 90 and 120 min, mixed with 2.5 volumes of ethanol and centrifuged (14,000 rpm, 15 min). The supernatants were collected, filtered and analyzed by LC-MS

[6] = Chemo-stability and drug release of conjugates 1a-e in buffers at pH 2, 5 and 7.4 (LC-MS); format: physicochemical; settings: 37° C.
Method: Incubation procedure: Aqueous stability was determined at pH 2.0 (phosphate buffer), 5.0 (citrate buffer) and 7.4 (PBS buffer). 100 μl of the stock solutions were diluted to 2.5 ml with the desired buffer and then incubated at 37° C. During the incubation period (up to 200 hrs.), aliquots were removed at different time intervals, filtered and analyzed by LC-MS.
Chemo-stability. The chemo-stability tests of the conjugates were performed at three different pH values; a physiological pH of 7.4, the slightly acidic pH 5, mimicking the microenvironment in tumors, and the more acidic pH 2.
FIGS. 11A-11J present the results of the chemo-stability and drug release profiles assays, conducted for conjugates 1a-e at pH 2, 5 and 7.4. Degradation of 1a (FIG. 11A), 1b (FIG. 11C), 1c (FIG. 11E), 1d (FIG. 11G), 1e FIG. 11 (FIG. 11I), and the release of the corresponding drugs: CLB (FIG. 11B), CPT (FIG. 11D), AM (FIG. 11F), ABT-751 (FIG. 11H), and COMB (FIG. 11J). Stock solutions were prepared by dissolving 5 mg of the measured conjugate in 0.5 ml DMSO. 100 μl of the stock solution were diluted to 2.5 ml with the relevant buffer and then incubated at 37° C. Along the incubation period, aliquots were taken at the desired time points and analyzed by LC-MS.

[7] = test system: HCT 116, H1299, TRAMP C2 and HEK cell lines; test: XTT growth inhibition assay, statements over all tested cell lines; format: cell-based, human
Method: as §1, §2
FIGS. 13A-13D present the results of the XTT growth inhibition assay conducted for conjugates 1a-e. Growth inhibition effect of drug-conjugates versus free drugs was studied on three cell lines with an over-expression of SSTR2 (FIG. 13A. HCT 116; FIG. 13B. H1299; FIG. 13C. TRAMP C2) against the SSTR2 low expression cell line (FIG. 13D) HEK as negative control. All the cell lines were seeded and allowed to adhere in the wells, after which they were treated with the different compounds in increasing concentrations for 24 and 72 hr. After the treatment, growth inhibition was measured using the XTT assay: The culture medium was replaced by a new one, and then the XTT reagent was added. The wells were incubated for 2-4 hrs. after which the optical density (OD) was measured at 480 and 680 nm. Percentage of growth inhibition for each compound was calculated by comparison of the treated culture versus a control culture (free of any compound). The result shown for each concentration point represents the mean±standard error calculated from two different experiments. In each experiment the compounds were tested in quadruplicates.

[8] = test system: TRAMP C2 prostate cancer cell lines; test: XTT growth inhibition assay, TRAMP C2; format: cell-based, human; settings: compared with corresponding free drugs
Method: (§3) The cytotoxicity of the peptide-drug conjugates was determined by measuring the mitochondrial enzyme activity, using a commercial XTT assay kit. All samples contained DMSO at final concentration <0.05%. Cells were cultured in micro wells at 2-4×10^4 cells/ml and incubated for 24 h or 72 h. After the first incubation period the cultures were washed and then given fresh medium containing different concentrations of the tested substances. At the end of the second incubation, XTT reagent was added and the cells were re-incubated for additional 2-4 h. During that time the absorbencies in the wells were measured with a TECAN Infinite M200 plate reader at both 480 and 680 nm. […]
(§4) In order to compare the cytotoxic effects of the conjugates relative to the free drugs, the in vitro cytotoxic effect of the drug bioconjugates 1a-e was determined on SSTR2 overexpressed HCT 116 human colorectal carcinoma, H1299 human non-small cell lung carcinoma and TRAMP C2 human prostate cancer cell lines. […]
(§5) FIGS. 13A-13D present the results of the XTT growth inhibition assay conducted for conjugates 1a-e. […] After the treatment, growth inhibition was measured using the XTT assay: The culture medium was replaced by a new one, and then the XTT reagent was added. The wells were incubated for 2-4 hrs. after which the optical density (OD) was measured at 480 and 680 nm. […]

[9] = test system: HEK-293 (Human Embryonic Kidney 293) cell line; test: XTT growth inhibition assay, HEK-293 negative control; format: cell-based
Method: as §3, §4, §5

CC[C@@]1(OC(=O)NCCCC[C@H](NC(=O)CCCc2ccc(N(CCCl)CCCl)cc2)C(=O)NCCCC[C@H](NC(=O)Oc2c(OC)cc([C@@H]3c4[nH]c5ccccc5c4C[C@H]4COC(=O)N43)cc2OC)C(=O)O)C(=O)OCc2c1cc1n(c2=O)Cc2cc3ccccc3nc2-1 [9a, Lys(AZA)-Lys(CBL)(CAMP)]
presence of free AZA [1]: could not be detected | time to concentration plateau of released CAMP [1]: 30 min | time to steady state plateau of released CLB [1]: 80 min | drug release in LH ([1]; 37° C.): quick release of CLB and CAMP | half-life at 0.04 mg/mL ([2]; pH 2, 37° C.): 120 min | half-life at 0.04 mg/mL ([2]; pH 5, 37° C.): 90 min | release of the three drugs ([2]; pH 2): none of the three drugs appeared to be released intact or at all | appearance of free AZA ([2]; pH 5): not detected | maximum concentration of released CAMP ([2]; pH 5): 34 nM | period in which released CAMP decays completely ([2]; pH 5): ≤ 80 h | time at which CLB could be first detected ([2]; pH 5): 38 h | time to maximum concentration of released CAMP ([2]; pH 5): 21 h | concentration of released CLB ([2]; pH 5, after 100 h): ≤ 44 nM | free CLB ([2]; pH 7.4): not detected | maximum concentration plateau of released AZA ([2]; pH 7.4): 12 nM | time at which AZA concentration starts to rise above base-line ([2]; pH 7.4): 20 h | time at which CAMP could be detected ([2]; pH 7.4): 75 h | time to maximum concentration of released CAMP ([2]; pH 7.4): 100 h | time to maximum concentration plateau of released AZA ([2]; pH 7.4): 40 h | cytotoxic effect / relative cytotoxic activity [3]: comparable level to the tested free drugs

COc1ccc(S(=O)(=O)Nc2cccnc2Nc2ccc(OC(=O)NCCCC(=O)N[C@H](Cc3ccccc3)C(=O)N[C@H]3CSSCCN(CC(N)=O)C(=O)[C@H](Cc4ccccc4)NC(=O)[C@H]([C@@H](C)O)NC(=O)[C@H](CCCCN)NC(=O)[C@@H](Cc4c[nH]c5ccccc45)NC(=O)[C@H](Cc4c[nH]c5ccccc45)NC(=O)[C@H](Cc4ccccc4)NC3=O)cc2)cc1 [conjugate 1d]
cytotoxic effect on H1299 [4]: most active | release of free drug in liver homogenate [5]: could hardly be detected | degradation of conjugate ([6]; all tested pH values (pH 2, 5, 7.4)): rapid degradation | half-life at 0.4 mg/ml ([6]; buffer, all tested pH values, read-out: average degradation t1/2 (converted)): 480 min | cytotoxicity throughout the study ([7]; 1-10 μM, 24 and 72 h): targeted but cell selective cytotoxicity | cytotoxic effect on TRAMP C2 [8]: most potent targeted therapeutic effect

CC[C@@]1(O)C(=O)OCc2c1cc1n(c2=O)Cc2cc3ccccc3nc2-1 [CPT, Camptothecin]
cytotoxic effect [9]: toxic | IC50 values ([7]; tested cell lines including HEK): low μM range
